Measurements reported in PMC11969024, “Development of chemokine network inhibitors using combinatorial saturation mutagenesis” (Communications Biology, 2025).

Experiments:
[1] = tested on: THP1 cells; assay: Chemokine dose-response, THP1 cell migration; format: cell-based, human; conditions: mean of biological replicates (2-7); for Mean pEC80: 3-parameter log-logistic fit, maximum fixed at 100%
Method: Cell lines were confirmed mycoplasma free by monthly testing using a MycoAlert^TM kit (LT07-118, Lonza) following the manufacturer’s instructions. THP1 cells: THP1 cells (ECACC 88081201, a human monocyte leukemia cell line[51]) were obtained from ECACC and were cultured in T175 flasks at 0.3-1 × 10^6 cells/mL in Roswell Park Memorial Institute (RPMI) 1640 medium (R0883, Sigma) with 10% FBS (F9665, Sigma) and 5mM L-glutamine (G7513, Sigma), 37 °C, 5% CO2. J:CXCR1 cells: The J:CXCR1 cell line was cultured in the same manner as THP1 cells at 0.15-1 × 10^6 cells per mL[37]. Activated T-cells: T-cells were isolated, activated and expanded as follows. Briefly, density gradient centrifugation using Lymphoprep^TM density gradient medium (07801, […] Technologies) and a SepMate^TM isolation tube (85450, […] Technologies) was used to isolate peripheral blood mononuclear cells from human leukocyte cones. Two rounds of purification using a human CD8 + T-cell isolation kit (480011, BioLegend) were used to isolate CD8 + T-cells from peripheral blood mononuclear cells. Activation of CD8 + T-cells was performed in ImmunoCult^TM-XF T-cell expansion medium (10982, […] Technologies) with an anti-CD3/anti-CD28 T-cell activator at 25 μl/ml (10991, […] Technologies), supplemented with 10 ng/ml recombinant human IL-2 (200-02, PeproTech) with 1% penicillin/streptomycin. T-cells were passaged every 2–3 days in TexMACS medium (130-097-196, Miltenyi Biotec), supplemented with 10 ng/ml human IL-2 (200-05-250, Peprotech) and incubated at 37 °C in 5% CO2. CD8 + T-cells were frozen at day 10-13 after initial activation, at 20×10^6 cell/ml in TexMACS medium supplemented with 10% DMSO (D2650, Sigma) in liquid nitrogen. Activated CD8^+ T-cells were recovered in TexMACs medium at 0.3 × 10^6 cell/ml and incubated at 37 °C in 5% CO2, 24 h prior to use. For buffy coat experiments a mixture of primary human monocytes, granulocytes and lymphocytes was isolated from human buffy coat. Briefly, RBCs were sedimented in HetaSep (07806, […] Technologies) with 1 mL of HetaSep per 5 mL of blood for 15 min at 37 °C. The buffy coat layer was collected from the top and washed in 50 ml MACS buffer (PBS (P4417, Sigma), 0.5% BSA (A7030, Sigma), 0.075% EDTA (E5134, Sigma), pH 7.2), by centrifugation at 2000 g for 10 min at room temperature. The pellet was resuspended in 10 mL of 1x RBC lysis solution (130-094-183, Miltenyi Biotec) and lysed for 10 min at room temperature. The cells were then washed in MACS buffer twice as above. The final pellet was resuspended in 1 mL of MACS buffer per 5 mL of initial blood volume and counted using cell size FSC-H/SSC-H parameters with gate settings previously defined by immunostaining (see below). The leukocytes were then resuspended in assay buffer for cell migration and used within 30 min of isolation.
Cell counts were determined using an ATTUNE NxT Flow Cytometer with Cytkick autosampler (ThermoFisher), based on cell size parameters FSC-H/SSC-H, with previously defined gate settings. FSC-H/SSC-H gate settings for primary white blood cells from buffy coats were determined using flow cytometry to establish the granulocyte, monocyte and lymphocyte populations (Supplementary Fig. 13). Briefly, cells were labelled with anti-CD3 (Miltenyi Biotec, 130-113-135) to identify the T cell population, anti-CD14 (Miltenyi Biotec, 130-110-578) to identify the monocyte population, and with anti-CD16 (Miltenyi Biotec, 130-113-951) to identify the granulocyte population. Negative control cells were labelled with anti-human IgG1 (Miltenyi Biotec, 130-113-434). All antibodies were allophycocyanin (APC) conjugated. 100,000 white blood cells were added to Eppendorf tubes and centrifuged at 300 g for 3 min. The supernatant was discarded, and the cells resuspended in 98 µL of MACS buffer (1× PBS, 2 mM EDTA and 0.5% BSA, sterile filtered). 2 µl of antibody was added to the cells. […]

[2] = tested on: activated T-cells (ATC); assay: Chemokine dose-response, activated T-cell (ATC) migration; format: cell-based, human; conditions: mean of biological replicates (3-6)
Method: Cell lines were confirmed mycoplasma free by monthly testing using a MycoAlert^TM kit (LT07-118, Lonza) following the manufacturer’s instructions. THP1 cells: THP1 cells (ECACC 88081201, a human monocyte leukemia cell line[51]) were obtained from ECACC and were cultured in T175 flasks at 0.3-1 × 10^6 cells/mL in Roswell Park Memorial Institute (RPMI) 1640 medium (R0883, Sigma) with 10% FBS (F9665, Sigma) and 5mM L-glutamine (G7513, Sigma), 37 °C, 5% CO2. J:CXCR1 cells: The J:CXCR1 cell line was cultured in the same manner as THP1 cells at 0.15-1 × 10^6 cells per mL[37]. Activated T-cells: T-cells were isolated, activated and expanded as follows. […] The final pellet was resuspended in 1 mL of MACS buffer per 5 mL of initial blood volume and counted using cell size FSC-H/SSC-H parameters with gate settings previously defined by immunostaining (see below). […]
Cell counts were determined using an ATTUNE NxT Flow Cytometer with Cytkick autosampler (ThermoFisher), based on cell size parameters FSC-H/SSC-H, with previously defined gate settings. FSC-H/SSC-H gate settings for primary white blood cells from buffy coats were determined using flow cytometry to establish the granulocyte, monocyte and lymphocyte populations (Supplementary Fig. 13). […]

B1: CCL14: human chemokine, Peprotech 300-38B (protein, UniProt Q16627 20-93, looked up)
C-C motif chemokine 14: TKTESSSRGPYHPSECCFTYTTYKIPRQRIMDYYETNSQCSKPGIVFITKRGHSVCTNPSDKWVQDYIKDMKEN
With B1 the “Mean pEC80” value [1] was 9.23 [M] and the “Mean pEC50” value [1] was 9.61 [M].

B2: CCL21: human chemokine, Peprotech 300-35A (protein)
chain: SDGGAQDCCLKYSQRKIPAKVVRSYRKQEPSLGCSIPAILFLPRKRSQAELCADPKELWVQQLMQHLDKTPSPQKPAQGCRKDRGASKTGKKGKGSKGCKRTERSQTPKGP
With B2 the “Mean pEC50” value [2] was 7.98 [M] and the “Mean pEC80” value [2] was 7.42 [M].

B3: CCL8: human chemokine, Peprotech 300-15 (protein, UniProt P80075 24-99, looked up)
C-C motif chemokine 8: QPDSVSIPITCCFNVINRKIPIQRLESYTRITNIQCPKEAVIFKTKRGKEVCADPKERWVRDSMKHLDQIFQNLKP
For B3, the “Mean pEC80” value [1] was 7.84 [M] and the “Mean pEC50” value [1] was 8.19 [M].

B4: CCL23: human chemokine, Biolegend 587002 (protein, UniProt P55773 22-120, looked up)
C-C motif chemokine 23: RVTKDAETEFMMSKLPLENPVLLDRFHATSADCCISYTPRSIPCSLLESYFETNSECSKPGVIFLTKKGRRFCANPSDKQVQVCMRMLKLDTRIKTRKN
With B4 the “Mean pEC80” value [1] was 8.66 [M] and the “Mean pEC50” value [1] was 8.97 [M].
